Data from patent US20210087522.

Key:
[1] = target: T1, SsPCP, PCP of a thaxtomin cluster from Streptomyces scabiei 87.22
T1 chain: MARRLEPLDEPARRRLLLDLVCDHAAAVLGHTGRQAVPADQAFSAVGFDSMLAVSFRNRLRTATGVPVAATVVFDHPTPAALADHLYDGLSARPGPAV

[2] = target: T2, FNsACP, homolog of ArCPNp from Fischerella
T2 chain: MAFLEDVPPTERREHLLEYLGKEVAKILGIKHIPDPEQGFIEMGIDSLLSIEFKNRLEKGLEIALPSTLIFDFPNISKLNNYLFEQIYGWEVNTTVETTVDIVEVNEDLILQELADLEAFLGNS

[3] = target: T3, FNPCP, CP of an uncharacterized NRP gene cluster from Fischerella
T3 chain: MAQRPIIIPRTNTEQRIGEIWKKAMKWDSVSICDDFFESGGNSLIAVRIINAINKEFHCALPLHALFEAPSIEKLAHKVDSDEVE

[4] = target: T4, AFACP, ACP of the FAS from Anabaena
T4 chain: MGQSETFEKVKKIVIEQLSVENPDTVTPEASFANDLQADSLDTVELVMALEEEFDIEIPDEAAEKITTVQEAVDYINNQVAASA

[5] = target: ScACP, ACP of a putative concanamycin gene cluster from Streptomyces coelicolor A(3)2
[6] = target: T5, MACP, CP of an uncharacterized NRP/PK gene cluster from M. aeruginosa NIES843
T5 chain: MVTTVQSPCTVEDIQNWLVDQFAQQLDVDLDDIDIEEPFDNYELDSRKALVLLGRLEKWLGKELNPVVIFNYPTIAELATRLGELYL

[7] = target: T6, APACP, ACP of the glycolipid PKS in Anabaena
T6 chain: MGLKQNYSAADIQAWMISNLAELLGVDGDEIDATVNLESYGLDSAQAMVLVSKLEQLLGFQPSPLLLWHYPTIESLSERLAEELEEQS

[8] = target: AprACP, ACP of the apratoxin (PK/NRP) gene cluster in Lyngbya sp.
[9] = target: T7, SFACP, ACP of the FAS from Synechocystis
T7 chain: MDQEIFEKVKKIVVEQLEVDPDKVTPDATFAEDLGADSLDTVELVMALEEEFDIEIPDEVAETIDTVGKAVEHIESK

[10] = target: T8, FisPCP, PCP of the shinorine gene cluster from Fischerella
T8 chain: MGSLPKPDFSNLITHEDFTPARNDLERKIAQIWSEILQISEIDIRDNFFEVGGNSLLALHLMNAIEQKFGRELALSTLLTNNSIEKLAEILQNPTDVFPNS

[11] = target: T9, APNPCP, CP of an uncharacterized NRP/PK gene cluster from Anabaena
T9 chain: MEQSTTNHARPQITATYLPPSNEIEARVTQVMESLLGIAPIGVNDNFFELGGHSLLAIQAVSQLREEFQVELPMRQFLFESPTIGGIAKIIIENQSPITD

B1: APPT, Sfp-like phosphopantetheinyl transferase (PPTase) from Anabaena sp. PCC7120 (protein)
chain: MLQHTWLPKPPNLTLLSDEVHLWRIPLDQPESQLQDLAATLSSDELARANRFYFPEHRRRFTAGRGILRSILGGYLGVEPGQVKFDYESRGKPILGDRFAESGLLFNLSHSQNLALCAVNYTRQIGIDLEYLRPTSDLESLAKRFFLPREYELLRSLPDEQKQKIFFRYWTCKEAYLKATGDGIAKLEEIEIALTPTEPAKLQTAPAWSLLELVPDDNCVAAVAVAGFGWQPKFWHY
Km [1]: 7.4 µM
kcat [1]: 0.127 s⁻¹
kcat/Km [1]: 16700 M⁻¹ s⁻¹
phosphopantetheinylation of CP (apo to holo), LC-MS [1]: APPT, AvPPT, MPPT and Sfp functionalized all substrates
Km [2]: 8.4 µM
kcat [2]: 0.0367 s⁻¹
kcat/Km [2]: 5000 M⁻¹ s⁻¹
phosphopantetheinylation of CP (apo to holo), LC-MS [2]: APPT, AvPPT, MPPT and Sfp functionalized all substrates
Km [3]: 12.1 µM
kcat [3]: 0.203 s⁻¹
kcat/Km [3]: 16700 M⁻¹ s⁻¹
phosphopantetheinylation of CP (apo to holo), LC-MS [3]: APPT, AvPPT, MPPT and Sfp functionalized all substrates
Km [4]: 6.8 µM
kcat [4]: 0.195 s⁻¹
kcat/Km [4]: 28300 M⁻¹ s⁻¹
phosphopantetheinylation of CP (apo to holo), LC-MS [4]: APPT, AvPPT, MPPT and Sfp functionalized all substrates
Km [5]: 14.1 µM
kcat [5]: 0.09 s⁻¹
kcat/Km [5]: 6670 M⁻¹ s⁻¹
phosphopantetheinylation of CP (apo to holo), LC-MS [5]: APPT, AvPPT, MPPT and Sfp functionalized all substrates
Km [6]: 7.9 µM
kcat [6]: 0.0617 s⁻¹
kcat/Km [6]: 8330 M⁻¹ s⁻¹
phosphopantetheinylation of CP (apo to holo), LC-MS [6]: APPT, AvPPT, MPPT and Sfp functionalized all substrates
Km [7]: 10 µM
kcat [7]: 0.283 s⁻¹
kcat/Km [7]: 26700 M⁻¹ s⁻¹
phosphopantetheinylation of CP (apo to holo), LC-MS [7]: APPT, AvPPT, MPPT and Sfp functionalized all substrates
Km [8]: 7.8 µM
kcat [8]: 0.238 s⁻¹
kcat/Km [8]: 30000 M⁻¹ s⁻¹
phosphopantetheinylation of CP (apo to holo), LC-MS [8]: APPT, AvPPT, MPPT and Sfp functionalized all substrates
Km [9]: 2.8 µM
kcat [9]: 0.0267 s⁻¹
kcat/Km [9]: 10000 M⁻¹ s⁻¹
phosphopantetheinylation of CP (apo to holo), LC-MS [9]: APPT, AvPPT, MPPT and Sfp functionalized all substrates
Km [10]: 7.1 µM
kcat [10]: 0.0383 s⁻¹
kcat/Km [10]: 5000 M⁻¹ s⁻¹
phosphopantetheinylation of CP (apo to holo), LC-MS [10]: APPT, AvPPT, MPPT and Sfp functionalized all substrates
Km [11]: 1.6 µM
kcat [11]: 0.0167 s⁻¹
kcat/Km [11]: 10000 M⁻¹ s⁻¹
phosphopantetheinylation of CP (apo to holo), LC-MS [11]: APPT, AvPPT, MPPT and Sfp functionalized all substrates

B2: AvPPT, Sfp-like phosphopantetheinyl transferase (PPTase) from Anabaena variabilis ATCC29413 (protein)
chain: MLQHTWLPKPPNLTLLSDEVHLWRIPLDRPESQLQHLAATLSSDELARANRFYFPEHRQRFTAGRGILRSILGLYLGVEPKQVKFEYESRGKPVLGDRFADSGLLFNLSHSQNLGLCAVNYTRQIGIDLEYLRPTSDLESLAKRFFLPREYELLRSLPDEQKQKIFFRYWTCKEAYLKATGDGIAKLEEIEIALTPTEPAKLQTTPAWSLLELVPDDNCVAAVAVAGFGWQPKFWQY
phosphopantetheinylation of CP (apo to holo), LC-MS [1]: APPT, AvPPT, MPPT and Sfp functionalized all substrates
phosphopantetheinylation of CP (apo to holo), LC-MS [2]: APPT, AvPPT, MPPT and Sfp functionalized all substrates
phosphopantetheinylation of CP (apo to holo), LC-MS [3]: APPT, AvPPT, MPPT and Sfp functionalized all substrates
phosphopantetheinylation of CP (apo to holo), LC-MS [4]: APPT, AvPPT, MPPT and Sfp functionalized all substrates
phosphopantetheinylation of CP (apo to holo), LC-MS [5]: APPT, AvPPT, MPPT and Sfp functionalized all substrates
phosphopantetheinylation of CP (apo to holo), LC-MS [6]: APPT, AvPPT, MPPT and Sfp functionalized all substrates
phosphopantetheinylation of CP (apo to holo), LC-MS [7]: APPT, AvPPT, MPPT and Sfp functionalized all substrates
phosphopantetheinylation of CP (apo to holo), LC-MS [8]: APPT, AvPPT, MPPT and Sfp functionalized all substrates
phosphopantetheinylation of CP (apo to holo), LC-MS [9]: APPT, AvPPT, MPPT and Sfp functionalized all substrates
phosphopantetheinylation of CP (apo to holo), LC-MS [10]: APPT, AvPPT, MPPT and Sfp functionalized all substrates
phosphopantetheinylation of CP (apo to holo), LC-MS [11]: APPT, AvPPT, MPPT and Sfp functionalized all substrates
